Laboratory results: patent US20170204445A1, “IN VIVO SITE-SPECIFIC PROTEIN TAGGING USING ENGINEERED SORTASE VARIANTS” (priority 2016, published 2017)

B1: Wild-type SrtA: wild-type Staphylococcus aureus sortase A Δ59, SEQ ID NO: 26 (protein, listed as Homo sapiens)
chain: MQAKPQIPKDKSKVAGYIEIPDADIKEPVYPGPATPEQLNRGVSFAEENESLDDQNISIAGHTFIDRPNYQFTNLKAAKKGSMVYFKVGNETRKYKMTSIRDVKPTDVEVLDEQKGKDKQLTLITCDDYNEKTGVWEKRKIFVATEVKLEHHHHHH
B2: Fn10-His-srt: engineered fibronectin domain Fn10 with His tag and C terminal LPETGG, SEQ ID NO: 29 (protein, listed as Homo sapiens)
chain: MLVPRGSSDVPRDLEVVAATPTSLLISWDAPAVTVRYYRITYGETGGNSPVQEFTVPGSKSTATISGLKPGVDYTITVYAVTPRGDWNEGSKPISINYRTGKKGKGGHHHHHHLPETGG
modifications: His tag, LPETGG

Columns and labels:
LPETGSW peptide = LPETGSW peptide (Staphylococcus aureus, UniProt Q2FV99, G167E); experiment: Transpeptidation of LPETGSW peptide with wild-type SrtA; conditions: 15-fold more enzyme (150 μM), 20 hours, 37° C., 25 mM Tris.HCl pH 7.5, 10 mM CaCl2
SrtA7M = target: T1, SrtA7M (Staphylococcus aureus, UniProt Q2FV99, D160N/D165A/E105K/E108Q/G167E/K190E/K196T/P94R); experiment: In vitro conjugation of purified LPETGG-tagged proteins by SrtA7M (ESI-TOF LC-MS); assay type: biochemical; conditions: 10 μM SrtA7M, 100 mM Azp or propargylamine, 8 hours, 37° C.
T1 construct: […]; made in house; host or cells: E. coli
Procedure: FIG. 3. Transpeptidation of purified proteins. Purified proteins expressed with a C-terminal LPETGG sequence were incubated with 10 μM SrtA7M for 8 hours at 37° C. along with the desired amine. Proteins were then diluted 10-fold with 0.2% formic acid and analyzed by ESI-TOF LC-MS. (A) Maltose binding protein. (B) Sf9 nanobody, and (C) Fibronectin Fn10, all show 80-100% conversion to the desired conjugate.
FIG. 9. Sortase conjugation time course.
FIG. 10. In vitro conjugation of sfGFP derivatives. (A) His-sfGFP-srt and (B) sfGFPHis-srt were incubated with 10 μM SrtA7M and 100 mM Azp or propargylamine for 8 hours at 37° C.
We next determined the ability of SrtA7M to modify purified proteins. We incubated several proteins containing a C terminal LPETGG sequence (srt) with 10 μM enzyme and either 100 mM Azp or propargylamine, followed by quenching with formic acid. […] To define the effective range of reaction conditions, we tested the conjugation of MBP-srt with Azp at different time points and substrate concentrations.
In vitro conjugation of proteins. Purified MBP-srt, His-sfGFP-srt, Nanobody-His-srt, Glutathione-S-transferase-His-srt, Fibronectin-His-srt, and sfGFP-His-srt were labeled after purification in 100 mM ammonium bicarbonate buffer pH 7.8. […]

| Molecule | conversion of LPETGSW peptide (LPETGSW peptide) | conversion / modification of the protein with the amine (SrtA7M) |
| --- | --- | --- |
| B1 | modest conversion |  |
| B2 |  | complete conversion |
